Assay results reported in publication doi:10.1101/2021.02.18.431817.
Like-named read-outs stand apart in the source and are kept apart here.

Assays:
Test in all cases: EMSA
AtGAPC1 [1] = molecular target: T1, AtGAPC1 (Arabidopsis thaliana, UniProt P25858 1-338)
AtGAPC1 [2] = molecular target: T1, AtGAPC1; remark: listed apart in the source
AtGAPC2 = AtGAPC2 (Arabidopsis thaliana, UniProt Q9FX54 1-338)
GAPDH from rabbit muscle = GAPDH from rabbit muscle (rabbit, UniProt P46406 1-333)
Chain of GAPDH from rabbit muscle (P46406 whole entry): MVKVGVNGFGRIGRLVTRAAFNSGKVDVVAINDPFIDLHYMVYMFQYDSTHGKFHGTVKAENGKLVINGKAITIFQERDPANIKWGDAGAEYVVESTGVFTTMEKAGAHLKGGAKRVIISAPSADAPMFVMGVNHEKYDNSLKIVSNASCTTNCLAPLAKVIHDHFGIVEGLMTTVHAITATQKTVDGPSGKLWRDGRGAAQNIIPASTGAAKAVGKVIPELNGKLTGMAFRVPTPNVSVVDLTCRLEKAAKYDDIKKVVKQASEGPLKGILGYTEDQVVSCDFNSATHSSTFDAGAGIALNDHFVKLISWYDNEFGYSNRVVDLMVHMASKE

T1 sequence (P25858 whole entry): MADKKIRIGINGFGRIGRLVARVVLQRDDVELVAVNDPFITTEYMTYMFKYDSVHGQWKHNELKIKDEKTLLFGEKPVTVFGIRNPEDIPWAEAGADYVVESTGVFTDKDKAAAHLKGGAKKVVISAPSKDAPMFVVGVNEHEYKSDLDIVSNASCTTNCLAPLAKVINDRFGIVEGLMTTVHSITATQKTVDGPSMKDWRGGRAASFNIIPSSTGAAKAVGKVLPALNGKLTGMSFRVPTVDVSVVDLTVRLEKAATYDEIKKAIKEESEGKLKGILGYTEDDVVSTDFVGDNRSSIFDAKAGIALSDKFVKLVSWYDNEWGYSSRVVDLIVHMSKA
Chain of AtGAPC2 (Q9FX54 whole entry): as the sequence (P25858 whole entry) above, with N61H, I65V, E68D, A92G, Y98F, A227S, L274M counted along it

Binder	binding result (AtGAPC1 [1])	binding result (AtGAPC1 [2])	binding result (AtGAPC2)	binding result (GAPDH from rabbit muscle)
AUAUAUGAGAUUAGGGUUU (ssRNA) [M2-RNA (consensus)]	binds	–	–	–
AUAUAUUCUCCGGAGAA (ssRNA) [M1-RNA (consensus)]	binds	–	–	–
ACCAGAUUUUUUUCGCCGGAGUUUGUUUUGAUCCA (ssRNA) [SAP3 M1]	–	binds	binds	binds
UUAGCGUUUUAAUGUUGAGUGAGUAAGUUAAGGGGUU (ssRNA) [Random RNA (AT5G16470 5'-UTR, mutated M2)]	no binding	–	–	–
